In patent US20240002491A1, “METHODS FOR SELECTING PATIENTS FOR TREATMENT WITH AN NGF ANTAGONIST” (Regeneron Pharmaceuticals, Inc., priority 2022, published 2024):

Tests used:
[1] = system: patients with OA of the knee and/or hip; test: ISS rates of DA and AA above and below cut-offs for change in alkaline phosphatase at 16 weeks
Description: To explore this possibility, three different cut-offs at 16 weeks were chosen (10, 15 and 20 U/L change from baseline) and the rate of DA above and below each cut-off was examined (FIG. 6). Of note, the standard deviation for change in alkaline phosphatase in the placebo arm is 12.9 at 8 weeks and 12.7 at 16 weeks.

[2] = system: patients with OA of the knee and/or hip; test: ISS post-hoc analysis combining OA joint burden and alkaline phosphatase cut-off (weeks 8-16); assay type: in vivo, human
Description: Both the baseline burden of OA and the change in alkaline phosphatase identify patients with higher risk of AA/DA/JR; these findings are observed only in the fasinumab arms, not the placebo arm, indicating an NGF-specific mechanism. The results raise the possibility of excluding high-risk patients and treating only patients with lower risk of joint-related adverse events, using more than one approach. To understand whether there is an interaction between the two approaches, and to explore a number of potential risk mitigation options, a post-hoc analysis was performed on the ISS data set to examine the impact of alkaline phosphatase within various joint subgroups. Because efficacy was preserved in the 1-2 and 3-4 joint subgroups as discussed above, the rates of AA/DA/JR were examined in overlapping subgroups: patients with 1-2, 1-3 and 1-4 joints with OA at baseline. For each of these subgroups, five potential cut-offs for change in alkaline phosphatase were explored: no change, 5-, 10-, 15- and 20-point change from baseline.
FIGS. 8A-8D show the percentage of patients with AA/DA/JR following exclusion of those who have a change in alkaline phosphatase at or above the designated cut-off at any time between weeks 8 and 16. In each of FIGS. 8A-8D, the X-axis represents overlapping bins of patients that become successively smaller as one looks left to right (percentage of the total population remaining in each bin is shown in the table beneath the graph). […] The next 5 bins to the right show the rates of AA/DA/JR in the patients who remain after excluding those above the designated cut-off for change in alkaline phosphatase. The placebo rate from the total ISS population is expressed as a solid black line.
For each of the joint related adverse events, the burden of OA and change in alkaline phosphatase are complementary from the perspective of risk-reduction. FIGS. 8A, 8C, and 8E show the reduction of risk of JR, AA, and DA, respectively, in patients treated with 1 mg fasinumab Q8W, for patients with different OA burden at different cut-off values for change in alkaline phosphatase. Similarly, FIGS. 8B, 8D, and 8F show the reduction of risk of JR, AA, and DA, respectively, in patients treated with 1 mg fasinumab Q4W, for patients with different OA burden at different cut-off values for change in alkaline phosphatase. For example, for the 1Q4 treatment arm and in the 1-2 joint subgroup, the JR rate is reduced from 7.4% in the total ISS population, to 6.4% in the 1-2 joint subgroup, to 5.5% in the population below the 20-point alkaline phosphatase cut-off—a difference of 0.4% from the ISS placebo rate (FIG. 8B). Similarly, for the 1Q4 treatment arm and in the 1-2 joint subgroup, the overall AA rate (70-80% RPDA-1) is reduced from 9.2% in the total ISS population, to 7.7% in the 1-2 joint subgroup, to 7.1% in the population below the 20-point alkaline phosphatase cut-off—a difference of 5.6% from the ISS placebo rate (FIG. 8D). Last, the DA rate is reduced from 0.5% in the total ISS population, to 0.3% in the 1-2 joint subgroup, to 0.1% in the population below the 20-point alkaline phosphatase (FIG. 8F).

[3] = system: patients with OA of the knee and/or hip; test: Integrated summary of efficacy (ISE): change in WOMAC pain subscale score at 16 weeks by joint subgroup; assay type: in vivo, human; conditions: 1Q4 and 1Q8 regimens; all joint subgroups; 95% confidence intervals excluded zero only for the 1-2 and 3-4 joint subgroups
Description: The integrated summary of efficacy (ISE) examined the change in WOMAC pain subscale score at 16 weeks in each of the above subgroups and is illustrated in the Forrest plot below (FIG. 4).

[4] = system: adults with moderate-to-severe chronic pain associated with osteoarthritis (OA) of the knee or hip; test: FACT OA2 (NCT03304379, R475-OA-1688) Phase 3 trial, WOMAC pain and physical function; assay type: in vivo, human
Description: NCT02683239 (R475-PN-1523, or “FACT LTS”), NCT03161093 (R475-OA-1611, or “FACT OA1”), and NCT03304379 (R475-OA-1688, or “FACT OA2”) each were Phase 3 trials evaluating fasinumab in adults with moderate-to-severe chronic pain associated with osteoarthritis (OA) of the knee or hip. All three of these trials enrolled patients with OA of the knee or hip who had inadequate pain relief with acetaminophen and were intolerant to or had inadequate pain relief with opioids, or were unwilling or unable to take opioids. Complete inclusion and exclusion criteria for the trials are described at clinicaltrials.gov/ct2/show/NCT03161093, clinicaltrials.gov/ct2/show/NCT03304379, and clinicaltrials.gov/ct2/show/NCT02683239.
FACT OA1 and FACT OA2 assessed the efficacy of fasinumab in comparison to nonsteroidal anti-inflammatory drugs (NSAIDs; naproxen, diclofenac, or celecoxib) for treatment of OA. FACT OA1 includes results from a total of 1,801 patients randomized to one of four treatment arms: fasinumab 1 mg SC once every 8 weeks (Q8W) (n=304), fasinumab 1 mg SC once every 4 weeks (Q4W) (n=639), naproxen 500 mg twice daily (n=644), or placebo (n=214). In FACT OA2, patients were randomized into one of six treatment groups: fasinumab 1 mg SC once every 4 weeks (Q4W), fasinumab 3 mg SC once every 4 weeks (Q4W), fasinumab 6 mg SC once every 8 weeks (Q8W), celecoxib 200 mg once daily, diclofenac 75 mg twice daily, or placebo. While the FACT OA2 trial was still ongoing, enrollment into the fasinumab 3 mg Q4W and 6 mg Q8W groups was stopped for safety considerations; patients enrolled in those dose regimens discontinued study drug and entered the post-treatment follow-up period.
Fasinumab patients in both trials also reported improvements in their pain and physical function (WOMAC score) compared to those treated with the highest-approved prescription doses of NSAIDS.

[5] = 1Q4, 1-2 joint subgroup, below the 20-point alkaline phosphatase cut-off
[6] = 1Q4, 1-2 joint subgroup, lower cut-offs for change in alkaline phosphatase
[7] = FACT OA2, Week 24, fasinumab 1 mg Q4W, diclofenac 2 × 75 mg/day or celecoxib 200 mg/d
[8] = FACT OA2, Week 24, fasinumab 1 mg Q4W, nominal p < 0.0001

Fasinumab: fully-human high-affinity monoclonal antibody directed against NGF; HCVR/LCVR SEQ ID NOs: 2/10
odds ratios of DA, change in alkaline phosphatase above vs below cut-off ([1]; cut-offs 10, 15, 20 U/L at 16 weeks, 1Q4 and 1Q8): 6 to 25
odds ratios of AA, change in alkaline phosphatase above vs below cut-off ([1]; cut-offs at 16 weeks, all 95% confidence intervals excluding 1): 1.5 to 2.5
DA rate, difference from placebo rate ([2]; 1 mg Q4W, alkaline phosphatase cut-off of 20): 0.1%
DA rate [2, 5]: 0.1%
JR rate [2, 5]: 5.5%
JR rate, difference from the ISS placebo rate [2, 5]: 0.4%
overall AA rate [2, 5]: 7.1%
overall AA rate, difference from the ISS placebo rate [2, 5]: 5.6%
overall AA rate [2, 6]: 4.6%
overall AA rate, difference from the placebo rate [2, 6]: 2.5%
rates of JR and DA [2, 6]: approximately the placebo rates
DA rate ([2]; 1Q4, total ISS population): 0.5%
JR rate ([2]; 1Q4, total ISS population): 7.4%
overall AA rate ([2]; 1Q4, total ISS population): 9.2%
change in WOMAC pain subscale score at 16 weeks compared with placebo [3]: numerically greater improvement compared with placebo
WOMAC pain, change from baseline [4, 7]: −42%
WOMAC pain, change from baseline (score, in brackets) [4, 7]: (−2.79)
WOMAC physical function, change from baseline [4, 7]: −39%
WOMAC physical function, change from baseline (score, in brackets) [4, 7]: (−2.63)
WOMAC pain, difference vs. placebo [4, 8]: −0.79
WOMAC physical function, difference vs. placebo [4, 8]: −0.82
WOMAC physical function, difference vs. diclofenac/celecoxib ([4]; FACT OA2, Week 24, fasinumab 1 mg/month, nominal p = 0.0152): −0.36
WOMAC pain, difference vs. diclofenac/celecoxib ([4]; FACT OA2, Week 24, fasinumab 1 mg/month, nominal p = 0.0503): −0.30
co-primary endpoints: pain and physical function compared to placebo ([4]; FACT OA2, fasinumab 1 mg Q4W, p<0.01 for all endpoints): significantly reduced pain and improved physical function compared to placebo
